Measurements reported in patent US20170314054A1 (ROCHE SEQUENCING SOLUTIONS, published 2017).
No end group written: not given here.

T1: microbial transglutaminase from Streptomyces mobaraensis (MTG) (Streptomyces mobaraensis, UniProt P81453 77-407)
T1 sequence (looked up): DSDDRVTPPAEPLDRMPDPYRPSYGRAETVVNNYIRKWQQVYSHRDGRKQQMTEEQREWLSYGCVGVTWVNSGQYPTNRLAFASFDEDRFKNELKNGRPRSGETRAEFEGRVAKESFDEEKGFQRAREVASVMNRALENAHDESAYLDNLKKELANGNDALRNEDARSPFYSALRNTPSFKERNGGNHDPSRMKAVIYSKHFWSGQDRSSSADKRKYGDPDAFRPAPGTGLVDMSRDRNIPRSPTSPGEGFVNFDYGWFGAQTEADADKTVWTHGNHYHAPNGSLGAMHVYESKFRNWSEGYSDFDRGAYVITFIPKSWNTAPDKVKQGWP

T2: Z-GGGDEKPDGGGG (SEQ ID NO: 81)
T2 chain: GGGDEKPDGGGG

T3: Z-GGGARSKLGGGG (SEQ ID NO: 80)
T3 chain: GGGARSKLGGGG

T4: Z-GGGDYALQGGGG (SEQ ID NO: 86)
T4 chain: GGGDYALQGGGG


How the values were obtained:
[1] = target: T1, microbial transglutaminase from …; assay: cell-based or functional assay
[2] = target: T2, Z-GGGDEKPDGGGG (SEQ ID NO: 81)
[3] = target: T3, Z-GGGARSKLGGGG (SEQ ID NO: 80)
[4] = target: T4, Z-GGGDYALQGGGG (SEQ ID NO: 86)

Row | Binder | A (array MTG labeling signal with Z-Gln-Gly-CAD-biotin) [1] | also measured
1 | RSKLA (not fully specified) [RSKLA (SEQ ID NO: 68)] | 13.3 | 
2 | QRTKL (also: flanked by G:S (3:1) linkers on peptide array) [QRTKL (SEQ ID NO: 77)] | 13.3 | 
3 | QRSKL (also: flanked by G:S (3:1) linkers on peptide array) [QRSKL (SEQ ID NO: 73)] | 13.3 | 
4 | RLKSK (also: flanked by G:S (3:1) linkers on peptide array) [RLKSK (SEQ ID NO: 67)] | 13.3 | 
5 | PKTKL (also: flanked by G:S (3:1) linkers on peptide array) [PKTKL (SEQ ID NO: 66)] | 13.3 | 
6 | microbial transglutaminase from Streptomyces mobaraensis (MTG) (protein) DSDDRVTPPAEPLDRMPDPYRPSYGRAETVVNNYIRKWQQVYSHRDGRKQQMTEEQREWLSYGCVGVTWVNSGQYPTNRLAFASFDEDRFKNELKNGRPRSGETRAEFEGRVAKESFDEEKGFQRAREVASVMNRALENAHDESAYLDNLKKELANGNDALRNEDARSPFYSALRNTPSFKERNGGNHDPSRMKAVIYSKHFWSGQDRSSSADKRKYGDPDAFRPAPGTGLVDMSRDRNIPRSPTSPGEGFVNFDYGWFGAQTEADADKTVWTHGNHYHAPNGSLGAMHVYESKFRNWSEGYSDFDRGAYVITFIPKSWNTAPDKVKQGWP |  | stated: almost no MTG turnover (rate of NADH oxidation, GLDH-coupled assay, 100 uM Z-GGGDYALQGGGG as amine acceptor) [2]: filled circles: rate stays at about 0 pmol/s from 0 to 200 uM and reaches only about 0.2 pmol/s at 500 uM; KM (GLDH-coupled MTG activity assay, 100 µM Z-GGGDYALQGGGG as amine acceptor) [3]: 66.8 µM; Vmax (GLDH-coupled MTG activity assay, 100 µM Z-GGGDYALQGGGG as amine acceptor) [3]: 5.1 pmol/s; difference in MTG catalytic efficiency against GGGDEKPDGGGG (SEQ ID NO: 81) [3]: an apparent difference in MTG catalytic efficiency of at least 10-fold was observed; kcat (GLDH-coupled MTG activity assay, 100 µM Z-GGGDYALQGGGG as amine acceptor) [3]: 0.066 s⁻¹; kcat/KM (GLDH-coupled MTG activity assay, 100 µM Z-GGGDYALQGGGG as amine acceptor) [3]: 990 M⁻¹ s⁻¹; KM (GLDH-coupled MTG activity assay) [4]: 970 µM; Vmax (GLDH-coupled MTG activity assay) [4]: 0.46 nmol/s; difference in MTG catalytic efficiency against standard QG-substrate [4]: a difference in MTG catalytic efficiency of at least 3-fold; kcat (GLDH-coupled MTG activity assay) [4]: 6 s⁻¹; kcat/KM (GLDH-coupled MTG activity assay) [4]: 6200 M⁻¹ s⁻¹
7 | RAKYK (also: flanked by G:S (3:1) linkers on peptide array) [RAKYK (SEQ ID NO: 70)] | 13.3 | 
8 | KTKYK (also: flanked by G:S (3:1) linkers on peptide array) [KTKYK (SEQ ID NO: 74)] | 13.3 | 
9 | SKLSK (not fully specified) [SKLSK (SEQ ID NO: 71)] | 13.3 | 
10 | GRSKL (also: flanked by G:S (3:1) linkers on peptide array) [GRSKL (SEQ ID NO: 69)] | 13.3 | 
11 | LSKLK (also: flanked by G:S (3:1) linkers on peptide array) [LSKLK (SEQ ID NO: 75)] | 13.3 | 
12 | KLGAK (also: flanked by G:S (3:1) linkers on peptide array) [KLGAK (SEQ ID NO: 72)] | 13.3 | 
13 | GYKLK (also: flanked by G:S (3:1) linkers on peptide array) [GYKLK (SEQ ID NO: 78)] | 13.3 | 
14 | NRTKL (also: flanked by G:S (3:1) linkers on peptide array) [NRTKL (SEQ ID NO: 76)] | 13.3 | 
